{
  "source": "IntAct's records for PubMed 14668441",
  "target": "arnt_human ARNT (UniProt P27540)",
  "data": [
    {"substance": "Endothelial PAS domain-containing protein 1 (Homo sapiens), Q99814 Q322E;M338E;Y342T", "values": [
      {"measurement": "effect of a mutation on the interaction", "value": "disrupting interaction strength"}
    ]}
  ]
}
